# Laboratory results from IntAct's records for PubMed 29039417.
# B1: BBSome complex member BBS4 (Homo sapiens), Q96RK4 (parent)
# chain: MAEERVATRTQFPVSTESQKPRQKKAPEFPILEKQNWLIHLHYIRKDYEACKAVIKEQLQETQGLCEYAIYVQALIFRLEGNIQESLELFQTCAVLSPQSADNLKQVARSLFLLGKHKAAIEVYNEAAKLNQKDWEISHNLGVCYIYLKQFNKAQDQLHNALNLNRHDLTYIMLGKIHLLEGDLDKAIEVYKKAVEFSPENTELLTTLGLLYLQLGIYQKAFEHLGNALTYDPTNYKAILAAGSMMQTHGDFDVALTKYRVVACAVPESPPLWNNIGMCFFGKKKYVAAISCLKRANYLAPFDWKILYNLGLVHLTMQQYASAFHFLSAAINFQPKMGELYMLLAVALTNLEDIENAKRAYAEAVHLDKCNPLVNLNYAVLLYNQGEKKNALAQYQEMEKKVSLLKDNSSLEFDSEMVEMAQKLGAALQVGEALVWTKPVKDPKSKHQTTSTSKPASFQQPLGSNQALGQAMSSAAAYRTLPSGAGGTSQFTKPPSLPLEPEPAVESSPTETSEQIREK
# partner: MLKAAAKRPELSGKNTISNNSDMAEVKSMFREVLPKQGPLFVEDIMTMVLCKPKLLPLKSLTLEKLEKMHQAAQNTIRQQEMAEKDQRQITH
# Variants of: B1
# Settings: with bbip1_human BBIP1, A8MTZ0
row,Variant,effect of a mutation on the interaction
1,MAEERVATRTQFPVSTESQKPRQKKAPEFPILEKQNWLIHLHYIRKDYEACKAVIKEQLQETQGLCEYAIYVQALIFRLEGNIQESLELFQTCAVLSPQSADNLKQVARSLFLLGKHKAAIEVYNEAAKLNQKDWEISHNLGVCYIYLKQFNKAQDQLHNALNLNRHDLTYIMLGKIHLLEGDLDKAIEVYKKAVEFSPENTELLTTLGLLYLQLGIYQKAFEHLGNALTYDPTNYKAILAAGSMMQTHGDFDVALTKYRVVACAVPESPPLWNNIGMCFFGKKKYVAAISCLKRANYLAPFDWKILYNLGLVHLTMQQYASAFHFLSAAINFQPKMGELYMLLAVALTNLEDIENAKRAYAEAVHLDKCNPLVNLNYAVLLYNQGEKKNALAQYQEMEKKVSLLKDNSSLEFDSEMVEMAQKLKAALQVGEALVWTKPVKDPKSKHQTTSTSKPASFQQPLGSNQALGQAMSSAAAYRTLPSGAGGTSQFTKPPSLPLEPEPAVESSPTETSEQIREK [G425K],with no effect
2,MAEERVATRTQFPVSTESQKPRQKKAPEFPILEKQNWLIHLHYIRKDYEACKAVIKEQLQETQGLCEYAIYVQALIFRLEGNIQESLELFQTCAVLSPQSADNLKQVARSLFLLGKHKAAIEVYNEAAKLNQKDWEISHNLGVCYIYLKQFNKAQDQLHNALNLNRHDLTYIMLGKIHLLEGDLDKAIEVYKKAVEFSPENTELLTTLGLLYLQLGIYQKAFEHLGNALTYDPTNYKAILAAGSMMQTHGDFDVALTKYRVVACAVPESPPLWNNIGMCFFGKKKYVAAISCLKRANYLAPFDWKILYNLGLVHLTMQQYASAFHFLSAAINFQPKMGELYMLLAVALTNLEDIENAKRAYAEAVHLDKCNPLVNLNYAVLLYNQGEKKNALAQYQEMEKKVSLLKDNSSLEFDSEMVEMAQKLEAALQVGEALVWTKPVKDPKSKHQTTSTSKPASFQQPLGSNQALGQAMSSAAAYRTLPSGAGGTSQFTKPPSLPLEPEPAVESSPTETSEQIREK [G425E],with no effect
3,MAEERVATRTQFPVSTESQKPRQKKAPEFPILEKQNWLIHLHYIRKDYEACKAVIKEQLQETQGLCEYAIYVQALIFRLEGNIQESLELFQTCAVLSPQSADNLKQVARSLFLLGKHKAAIEVYNEAAKLNQKDWEISHNLGVCYIYLKQFNKAQDQLHNALNLNRHDLTYIMLGKIHLLEGDLDKAIEVYKKAVEFSPENTELLTTLGLLYLQLGIYQKAFEHLGNALTYDPTNYKAILAAGSMMQTHGDFDVALTKYRVVACAVPESPPLWNNIGMCFFGKKKYVAAISCLKRANYLAPFDWKILYNLGLVHLTMQQYASAFHFLSAAINFQPKMGELYMLLAVALTNLEDIENAKRAYAEAVHLDKCNPLVNLNYAVLLYNQGEKKNALAQYQEMEKKVSLLKDNSSLEFDSEMVEMAQKLAAALQVGEALVWTKPVKDPKSKHQTTSTSKPASFQQPLGSNQALGQAMSSAAAYRTLPSGAGGTSQFTKPPSLPLEPEPAVESSPTETSEQIREK [G425A],with no effect
4,MAEERVATRTQFPVSTESQKPRQKKAPEFPILEKQNWLIHLHYIRKDYEACKAVIKEQLQETQGLCEYAIYVQALIFRLEGNIQESLELFQTCAVLSPQSADNLKQVARSLFLLGKHKAAIEVYNEAAKLNQKDWEISHNLGVCYIYLKQFNKAQDQLHNALNLNRHDLTYIMLGKIHLLEGDLDKAIEVYKKAVEFSPENTELLTTLGLLYLQLGIYQKAFEHLGNALTYDPTNYKAILAAGSMMQTHGDFDVALTKYRVVACAVPESPPLWNNIGMCFFGKKKYVAAISCLKRANYLAPFDWKILYNLGLVHLTMQQYASAFHFLSAAINFQPKMGELYMLLAVALTNLEDIENAKRAYAEAVHLDKCNPLVNLNYAVLLYNQGEKKNALAQYQEMEKKVSLLKDNSSLEFDSEMVEMAQKLGKALQVGEALVWTKPVKDPKSKHQTTSTSKPASFQQPLGSNQALGQAMSSAAAYRTLPSGAGGTSQFTKPPSLPLEPEPAVESSPTETSEQIREK [A426K],with no effect
5,MAEERVATRTQFPVSTESQKPRQKKAPEFPILEKQNWLIHLHYIRKDYEACKAVIKEQLQETQGLCEYAIYVQALIFRLEGNIQESLELFQTCAVLSPQSADNLKQVARSLFLLGKHKAAIEVYNEAAKLNQKDWEISHNLGVCYIYLKQFNKAQDQLHNALNLNRHDLTYIMLGKIHLLEGDLDKAIEVYKKAVEFSPENTELLTTLGLLYLQLGIYQKAFEHLGNALTYDPTNYKAILAAGSMMQTHGDFDVALTKYRVVACAVPESPPLWNNIGMCFFGKKKYVAAISCLKRANYLAPFDWKILYNLGLVHLTMQQYASAFHFLSAAINFQPKMGELYMLLAVALTNLEDIENAKRAYAEAVHLDKCNPLVNLNYAVLLYNQGEKKNALAQYQEMEKKVSLLKDNSSLEFDSEMVEMAQKLGEALQVGEALVWTKPVKDPKSKHQTTSTSKPASFQQPLGSNQALGQAMSSAAAYRTLPSGAGGTSQFTKPPSLPLEPEPAVESSPTETSEQIREK [A426E],with no effect
6,MAEERVATRTQFPVSTESQKPRQKKAPEFPILEKQNWLIHLHYIRKDYEACKAVIKEQLQETQGLCEYAIYVQALIFRLEGNIQESLELFQTCAVLSPQSADNLKQVARSLFLLGKHKAAIEVYNEAAKLNQKDWEISHNLGVCYIYLKQFNKAQDQLHNALNLNRHDLTYIMLGKIHLLEGDLDKAIEVYKKAVEFSPENTELLTTLGLLYLQLGIYQKAFEHLGNALTYDPTNYKAILAAGSMMQTHGDFDVALTKYRVVACAVPESPPLWNNIGMCFFGKKKYVAAISCLKRANYLAPFDWKILYNLGLVHLTMQQYASAFHFLSAAINFQPKMGELYMLLAVALTNLEDIENAKRAYAEAVHLDKCNPLVNLNYAVLLYNQGEKKNALAQYQEMEKKVSLLKDNSSLEFDSEMVEMAQKSGAALQVGEALVWTKPVKDPKSKHQTTSTSKPASFQQPLGSNQALGQAMSSAAAYRTLPSGAGGTSQFTKPPSLPLEPEPAVESSPTETSEQIREK [L424S],disrupting interaction strength
7,MAEERVATRTQFPVSTESQKPRQKKAPEFPILEKQNWLIHLHYIRKDYEACKAVIKEQLQETQGLCEYAIYVQALIFRLEGNIQESLELFQTCAVLSPQSADNLKQVARSLFLLGKHKAAIEVYNEAAKLNQKDWEISHNLGVCYIYLKQFNKAQDQLHNALNLNRHDLTYIMLGKIHLLEGDLDKAIEVYKKAVEFSPENTELLTTLGLLYLQLGIYQKAFEHLGNALTYDPTNYKAILAAGSMMQTHGDFDVALTKYRVVACAVPESPPLWNNIGMCFFGKKKYVAAISCLKRANYLAPFDWKILYNLGLVHLTMQQYASAFHFLSAAINFQPKMGELYMLLAVALTNLEDIENAKRAYAEAVHLDKCNPLVNLNYAVLLYNQGEKKNALAQYQEMEKKVSLLKDNSSLEFDSEMVEMAQKEGAALQVGEALVWTKPVKDPKSKHQTTSTSKPASFQQPLGSNQALGQAMSSAAAYRTLPSGAGGTSQFTKPPSLPLEPEPAVESSPTETSEQIREK [L424E],with no effect
8,MAEERVATRTQFPVSTESQKPRQKKAPEFPILEKQNWLIHLHYIRKDYEACKAVIKEQLQETQGLCEYAIYVQALIFRLEGNIQESLELFQTCAVLSPQSADNLKQVARSLFLLGKHKAAIEVYNEAAKLNQKDWEISHNLGVCYIYLKQFNKAQDQLHNALNLNRHDLTYIMLGKIHLLEGDLDKAIEVYKKAVEFSPENTELLTTLGLLYLQLGIYQKAFEHLGNALTYDPTNYKAILAAGSMMQTHGDFDVALTKYRVVACAVPESPPLWNNIGMCFFGKKKYVAAISCLKRANYLAPFDWKILYNLGLVHLTMQQYASAFHFLSAAINFQPKMGELYMLLAVALTNLEDIENAKRAYAEAVHLDKCNPLVNLNYAVLLYNQGEKKNALAQYQEMEKKVSLLKDNSSLEFDSEMVEMAQKAGAALQVGEALVWTKPVKDPKSKHQTTSTSKPASFQQPLGSNQALGQAMSSAAAYRTLPSGAGGTSQFTKPPSLPLEPEPAVESSPTETSEQIREK [L424A],disrupting interaction strength
9,MAEERVATRTQFPVSTESQKPRQKKAPEFPILEKQNWLIHLHYIRKDYEACKAVIKEQLQETQGLCEYAIYVQALIFRLEGNIQESLELFQTCAVLSPQSADNLKQVARSLFLLGKHKAAIEVYNEAAKLNQKDWEISHNLGVCYIYLKQFNKAQDQLHNALNLNRHDLTYIMLGKIHLLEGDLDKAIEVYKKAVEFSPENTELLTTLGLLYLQLGIYQKAFEHLGNALTYDPTNYKAILAAGSMMQTHGDFDVALTKYRVVACAVPESPPLWNNIGMCFFGKKKYVAAISCLKRANYLAPFDWKILYNLGLVHLTMQQYASAFHFLSAAINFQPKMGELYMLLAVALTNLEDIENAKRAYAEAVHLDKCNPLVNLNYAVLLYNQGEKKNALAQYQEMEKKVSLLKDNSSLEFDSEMVEMAQKKGAALQVGEALVWTKPVKDPKSKHQTTSTSKPASFQQPLGSNQALGQAMSSAAAYRTLPSGAGGTSQFTKPPSLPLEPEPAVESSPTETSEQIREK [L424K],with no effect
10,MAEERVATRTQFPVSTESQKPRQKKAPEFPILEKQNWLIHLHYIRKDYEACKAVIKEQLQETQGLCEYAIYVQALIFRLEGNIQESLELFQTCAVLSPQSADNLKQVARSLFLLGKHKAAIEVYNEAAKLNQKDWEISHNLGVCYIYLKQFNKAQDQLHNALNLNRHDLTYIMLGKIHLLEGDLDKAIEVYKKAVEFSPENTELLTTLGLLYLQLGIYQKAFEHLGNALTYDPTNYKAILAAGSMMQTHGDFDVALTKYRVVACAVPESPPLWNNIGMCFFGKKKYVAAISCLKRANYLAPFDWKILYNLGLVHLTMQQYASAFHFLSAAINFQPKMGELYMLLAVALTNLEDIENAKRAYAEAVHLDKCNPLVNLNYAVLLYNQGEKKNALAQYQEMEKKVSLLKDNSSLEFDSEMVEMAQKLGAELQVGEALVWTKPVKDPKSKHQTTSTSKPASFQQPLGSNQALGQAMSSAAAYRTLPSGAGGTSQFTKPPSLPLEPEPAVESSPTETSEQIREK [A427E],with no effect
11,MAEERVATRTQFPVSTESQKPRQKKAPEFPILEKQNWLIHLHYIRKDYEACKAVIKEQLQETQGLCEYAIYVQALIFRLEGNIQESLELFQTCAVLSPQSADNLKQVARSLFLLGKHKAAIEVYNEAAKLNQKDWEISHNLGVCYIYLKQFNKAQDQLHNALNLNRHDLTYIMLGKIHLLEGDLDKAIEVYKKAVEFSPENTELLTTLGLLYLQLGIYQKAFEHLGNALTYDPTNYKAILAAGSMMQTHGDFDVALTKYRVVACAVPESPPLWNNIGMCFFGKKKYVAAISCLKRANYLAPFDWKILYNLGLVHLTMQQYASAFHFLSAAINFQPKMGELYMLLAVALTNLEDIENAKRAYAEAVHLDKCNPLVNLNYAVLLYNQGEKKNALAQYQEMEKKVSLLKDNSSLEFDSEMVEMAQELGAALQVGEALVWTKPVKDPKSKHQTTSTSKPASFQQPLGSNQALGQAMSSAAAYRTLPSGAGGTSQFTKPPSLPLEPEPAVESSPTETSEQIREK [K423E],with no effect
12,MAEERVATRTQFPVSTESQKPRQKKAPEFPILEKQNWLIHLHYIRKDYEACKAVIKEQLQETQGLCEYAIYVQALIFRLEGNIQESLELFQTCAVLSPQSADNLKQVARSLFLLGKHKAAIEVYNEAAKLNQKDWEISHNLGVCYIYLKQFNKAQDQLHNALNLNRHDLTYIMLGKIHLLEGDLDKAIEVYKKAVEFSPENTELLTTLGLLYLQLGIYQKAFEHLGNALTYDPTNYKAILAAGSMMQTHGDFDVALTKYRVVACAVPESPPLWNNIGMCFFGKKKYVAAISCLKRANYLAPFDWKILYNLGLVHLTMQQYASAFHFLSAAINFQPKMGELYMLLAVALTNLEDIENAKRAYAEAVHLDKCNPLVNLNYAVLLYNQGEKKNALAQYQEMEKKVSLLKDNSSLEFDSEMVEMAQALGAALQVGEALVWTKPVKDPKSKHQTTSTSKPASFQQPLGSNQALGQAMSSAAAYRTLPSGAGGTSQFTKPPSLPLEPEPAVESSPTETSEQIREK [K423A],with no effect
